Source: the supplement of paper PMC9112550, “Optimization of the antimicrobial peptide Bac7 by deep mutational scanning” (BMC Biology, 2022)

tested on: Escherichia coli TOP10; assay: shrunken log2 fold change of peptide-encoding DNA abundance (4.5 h post-induction vs induction); higher = less antimicrobial activity (less host growth inhibition); details: time post-induction: 4.5 h; library: site-saturation at positions 5, 18, 19, 20
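Note: peptides expressed intracellularly from a pBAD plasmid library in pooled LB shake-flask culture, induced with 0.3% L-arabinose, DNA abundance read by NGS, three biological replicates, DESeq2 with apeglm shrinkage.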

Row | Sequence | shrunken log2 fold change
1 | RRIRPRPPRLPRPRPRPEFTPRP | 0.26
2 | RRIRPRPPRLPRPRPRPEFWPRP | 0.583
3 | RRIRPRPPRLPRPRPRPEGFPRP | 0.86
4 | RRIRPRPPRLPRPRPRPEGHPRP | -0.16
5 | RRIRPRPPRLPRPRPRPEGRPRP | 0.545
6 | RRIRPRPPRLPRPRPRPEHRPRP | 0.0967
7 | RRIRPRPPRLPRPRPRPEHVPRP | 0.0556
8 | RRIRPRPPRLPRPRPRPEHWPRP | 0.226
9 | RRIRPRPPRLPRPRPRPEISPRP | -0.00759
10 | RRIRPRPPRLPRPRPRPEKEPRP | -0.143
11 | RRIRPRPPRLPRPRPRPEKWPRP | 0.0413
12 | RRIRPRPPRLPRPRPRPELQPRP | 0.345
13 | RRIRPRPPRLPRPRPRPENIPRP | -0.102
14 | RRIRPRPPRLPRPRPRPENKPRP | -0.232
15 | RRIRPRPPRLPRPRPRPENMPRP | -0.395
16 | RRIRPRPPRLPRPRPRPENSPRP | -0.0155
17 | RRIRPRPPRLPRPRPRPENYPRP | -0.283
18 | RRIRPRPPRLPRPRPRPEPNPRP | 0.293
19 | RRIRPRPPRLPRPRPRPEQMPRP | 0.0974
20 | RRIRPRPPRLPRPRPRPEQWPRP | 0.0326
21 | RRIRPRPPRLPRPRPRPERQPRP | 0.153
22 | RRIRPRPPRLPRPRPRPEVGPRP | 0.353

Row | Sequence | shrunken log2 fold change
23 | RRIRPRPPRLPRPRPRPEVMPRP | 0.462
24 | RRIRPRPPRLPRPRPRPEWFPRP | 0.341
25 | RRIRPRPPRLPRPRPRPFECPRP | -0.242
26 | RRIRPRPPRLPRPRPRPFEHPRP | 0.0626
27 | RRIRPRPPRLPRPRPRPFESPRP | 0.17
28 | RRIRPRPPRLPRPRPRPFEVPRP | 0.0802
29 | RRIRPRPPRLPRPRPRPFFYPRP | -0.214
30 | RRIRPRPPRLPRPRPRPFGFPRP | 0.0716
31 | RRIRPRPPRLPRPRPRPFGIPRP | -0.21
32 | RRIRPRPPRLPRPRPRPFHCPRP | -0.297
33 | RRIRPRPPRLPRPRPRPFHKPRP | -0.453
34 | RRIRPRPPRLPRPRPRPFHPPRP | -0.255
35 | RRIRPRPPRLPRPRPRPFIVPRP | -0.257
36 | RRIRPRPPRLPRPRPRPFLFPRP | -0.204
37 | RRIRPRPPRLPRPRPRPFLVPRP | -0.0765
38 | RRIRPRPPRLPRPRPRPFMIPRP | 0.471
39 | RRIRPRPPRLPRPRPRPFMPPRP | -0.793
40 | RRIRPRPPRLPRPRPRPFMSPRP | -0.384
41 | RRIRPRPPRLPRPRPRPFNMPRP | -0.949
42 | RRIRPRPPRLPRPRPRPFQNPRP | -0.445
43 | RRIRPRPPRLPRPRPRPFRIPRP | 0.000199
44 | RRIRPRPPRLPRPRPRPFTFPRP | -0.189

Row | Sequence | shrunken log2 fold change
45 | RRIRPRPPRLPRPRPRPFTWPRP | -0.236
46 | RRIRPRPPRLPRPRPRPFVHPRP | -0.246
47 | RRIRPRPPRLPRPRPRPFVMPRP | -0.201
48 | RRIRPRPPRLPRPRPRPFWYPRP | -0.525
49 | RRIRPRPPRLPRPRPRPGAIPRP | 0.0588
50 | RRIRPRPPRLPRPRPRPGCPPRP | 0.0239
51 | RRIRPRPPRLPRPRPRPGCWPRP | 0.621
52 | RRIRPRPPRLPRPRPRPGDDPRP | -0.292
53 | RRIRPRPPRLPRPRPRPGDQPRP | 3.33
54 | RRIRPRPPRLPRPRPRPGFAPRP | 0.318
55 | RRIRPRPPRLPRPRPRPGFKPRP | 0.13
56 | RRIRPRPPRLPRPRPRPGFTPRP | -0.139
57 | RRIRPRPPRLPRPRPRPGGHPRP | 0.372
58 | RRIRPRPPRLPRPRPRPGGYPRP | 0.25
59 | RRIRPRPPRLPRPRPRPGIIPRP | -0.0894
60 | RRIRPRPPRLPRPRPRPGNHPRP | -0.16
61 | RRIRPRPPRLPRPRPRPGPCPRP | 0.363
62 | RRIRPRPPRLPRPRPRPGPNPRP | 0.51
63 | RRIRPRPPRLPRPRPRPGQYPRP | 0.0431
64 | RRIRPRPPRLPRPRPRPGRGPRP | 0.611
65 | RRIRPRPPRLPRPRPRPGRNPRP | -0.0548
66 | RRIRPRPPRLPRPRPRPGRVPRP | 0.318

Row | Sequence | shrunken log2 fold change
67 | RRIRPRPPRLPRPRPRPGSDPRP | -0.00287
68 | RRIRPRPPRLPRPRPRPGSIPRP | -0.261
69 | RRIRPRPPRLPRPRPRPGSSPRP | -0.0653
70 | RRIRPRPPRLPRPRPRPGTGPRP | -0.0651
71 | RRIRPRPPRLPRPRPRPGTHPRP | -0.017
72 | RRIRPRPPRLPRPRPRPGTKPRP | 0.453
73 | RRIRPRPPRLPRPRPRPGTSPRP | -0.0162
74 | RRIRPRPPRLPRPRPRPGVRPRP | 0.116
75 | RRIRPRPPRLPRPRPRPGYDPRP | -0.0887
76 | RRIRPRPPRLPRPRPRPHALPRP | -0.376
77 | RRIRPRPPRLPRPRPRPHAWPRP | 0.189
78 | RRIRPRPPRLPRPRPRPHCPPRP | 0.0157
79 | RRIRPRPPRLPRPRPRPHETPRP | -0.164
80 | RRIRPRPPRLPRPRPRPHEWPRP | 0.278
81 | RRIRPRPPRLPRPRPRPHFRPRP | 0.0655
82 | RRIRPRPPRLPRPRPRPHGGPRP | 0.216
83 | RRIRPRPPRLPRPRPRPHGVPRP | -0.104
84 | RRIRPRPPRLPRPRPRPHKGPRP | 0.0224
85 | RRIRPRPPRLPRPRPRPHKVPRP | -0.429
86 | RRIRPRPPRLPRPRPRPHLFPRP | -0.0473
87 | RRIRPRPPRLPRPRPRPHMHPRP | -0.438
88 | RRIRPRPPRLPRPRPRPHMQPRP | 0.151

Row | Sequence | shrunken log2 fold change
89 | RRIRPRPPRLPRPRPRPHSQPRP | -0.134
90 | RRIRPRPPRLPRPRPRPHSRPRP | -0.198
91 | RRIRPRPPRLPRPRPRPHTFPRP | -0.667
92 | RRIRPRPPRLPRPRPRPHTYPRP | -0.942
93 | RRIRPRPPRLPRPRPRPHVDPRP | -0.029
94 | RRIRPRPPRLPRPRPRPHVFPRP | -0.327
95 | RRIRPRPPRLPRPRPRPHVLPRP | -0.0256
96 | RRIRPRPPRLPRPRPRPHVMPRP | -0.0285
97 | RRIRPRPPRLPRPRPRPHVVPRP | -0.136
98 | RRIRPRPPRLPRPRPRPIDGPRP | 0.023
99 | RRIRPRPPRLPRPRPRPIDMPRP | -0.0916
100 | RRIRPRPPRLPRPRPRPIDPPRP | -0.172
101 | RRIRPRPPRLPRPRPRPIERPRP | 0.157
102 | RRIRPRPPRLPRPRPRPIEWPRP | 0.015
103 | RRIRPRPPRLPRPRPRPIFLPRP | 0.124
104 | RRIRPRPPRLPRPRPRPIFTPRP | -0.0736
105 | RRIRPRPPRLPRPRPRPIFWPRP | 1.25
106 | RRIRPRPPRLPRPRPRPIHTPRP | -0.177
107 | RRIRPRPPRLPRPRPRPIHWPRP | 0.225
108 | RRIRPRPPRLPRPRPRPIKHPRP | -0.31
109 | RRIRPRPPRLPRPRPRPIKQPRP | 0.109
